Test results published in PMC8073111.

Columns and labels:
C-myc-CCR4-RLuc8 (human) = target: T1, C-myc-CCR4-RLuc8 (human) (UniProt P51679)
T1 sequence: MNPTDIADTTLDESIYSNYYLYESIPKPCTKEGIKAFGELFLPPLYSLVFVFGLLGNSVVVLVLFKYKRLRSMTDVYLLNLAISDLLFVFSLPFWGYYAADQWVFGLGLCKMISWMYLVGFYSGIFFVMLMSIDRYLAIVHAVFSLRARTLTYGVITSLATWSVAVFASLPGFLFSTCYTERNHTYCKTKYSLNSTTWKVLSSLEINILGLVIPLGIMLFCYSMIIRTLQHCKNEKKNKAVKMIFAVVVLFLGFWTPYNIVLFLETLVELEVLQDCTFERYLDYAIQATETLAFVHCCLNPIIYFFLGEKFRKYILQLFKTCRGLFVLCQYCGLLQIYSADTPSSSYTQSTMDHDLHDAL

C-myc-CCR7-RLuc8 (human) [1] = target: C-myc-CCR7-RLuc8 (human) (UniProt P32248); conditions: scale: pEC50
UniProt P32248, sequence (P32248 25-378): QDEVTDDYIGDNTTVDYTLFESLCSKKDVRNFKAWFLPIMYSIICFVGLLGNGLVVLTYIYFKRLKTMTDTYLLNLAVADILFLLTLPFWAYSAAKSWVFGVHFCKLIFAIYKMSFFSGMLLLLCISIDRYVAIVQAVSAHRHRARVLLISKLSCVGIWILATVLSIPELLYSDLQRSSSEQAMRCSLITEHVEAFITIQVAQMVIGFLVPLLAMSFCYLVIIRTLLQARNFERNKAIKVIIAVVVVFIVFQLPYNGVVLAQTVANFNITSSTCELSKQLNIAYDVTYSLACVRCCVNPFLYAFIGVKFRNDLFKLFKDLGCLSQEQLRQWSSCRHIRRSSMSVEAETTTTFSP

C-myc-CCR7-RLuc8 (human) [2] = target: C-myc-CCR7-RLuc8 (human) (UniProt P32248)
[3] = target: T2, C-myc-CCR10-RLuc8 (human) (UniProt P46092)
T2 sequence: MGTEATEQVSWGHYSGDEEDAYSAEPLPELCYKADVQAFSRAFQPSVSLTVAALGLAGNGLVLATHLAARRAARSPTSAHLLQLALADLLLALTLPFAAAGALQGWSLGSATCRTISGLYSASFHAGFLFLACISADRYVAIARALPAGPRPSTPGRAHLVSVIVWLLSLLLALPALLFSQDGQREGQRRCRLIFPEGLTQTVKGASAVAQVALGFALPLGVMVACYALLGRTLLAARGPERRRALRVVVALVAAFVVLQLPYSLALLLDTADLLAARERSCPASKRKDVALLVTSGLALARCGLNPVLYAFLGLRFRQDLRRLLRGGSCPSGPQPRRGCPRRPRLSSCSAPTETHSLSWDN

Molecule “CC chemokine ligand 17 (CCL17) (from UniProt Q92583 24-94)” has a β-arrestin2 recruitment to CCR4 (BRET): Emax relative to CCL22 (C-myc-CCR4-RLuc8 (human)) of 28%.

Molecule “CCL21 (from UniProt O00585 24-134) (ligand)” has a β-arrestin2 recruitment to CCR7 (BRET): pEC50 as printed in the text, assuming the same Emax value (differs from Table 1) (C-myc-CCR7-RLuc8 (human) [1]) of 6.7, a G protein activation via CCR7: Emax relative to CCL19 (C-myc-CCR7-RLuc8 (human) [2]) of 103% and a cAMP inhibition via CCR7: Emax relative to CCL19 (C-myc-CCR7-RLuc8 (human) [2]) of 99%.

B1: CCL28(4-108) (ligand)
chain: ILPIASSCCTEVSHHISRRLLERVNMCRIQRADGDCDLAAVILHVKRRRICVSPHNHTVKQWMKVQAAKKNGKGNVCHRKKHHGKRNSNRAHQGKHETYGHKTPY
For B1, the G protein activation via CCR10: maximum signal observed relative to the Emax of CCL27; curve not saturated [3] was 80%, the NFAT Ca2+ reporter via CCR10: Emax relative to CCL27 [3] was 106% and the cAMP inhibition via CCR10: maximum signal observed relative to the Emax of CCL27; curve not saturated [3] was 64%. For the same molecule, the β-arrestin2 recruitment to CCR10 (BRET): maximum signal observed relative to the Emax of CCL27; curve not saturated, potency ND [3] was 82%.
